The labels stand for the following.
T1: recombinant WT full-length Nde1, not phosphorylated (dephospho-Nde1) (mouse, UniProt Q9CZA6 1-344)
T1 sequence (looked up): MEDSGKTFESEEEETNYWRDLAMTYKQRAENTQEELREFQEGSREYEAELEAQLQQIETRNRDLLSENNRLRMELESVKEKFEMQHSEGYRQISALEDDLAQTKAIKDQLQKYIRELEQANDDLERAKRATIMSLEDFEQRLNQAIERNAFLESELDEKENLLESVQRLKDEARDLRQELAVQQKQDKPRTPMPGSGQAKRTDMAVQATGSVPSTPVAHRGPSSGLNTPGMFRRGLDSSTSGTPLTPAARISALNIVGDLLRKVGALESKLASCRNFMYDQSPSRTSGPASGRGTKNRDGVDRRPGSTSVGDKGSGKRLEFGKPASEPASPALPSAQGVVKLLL

B1: GFP-Nde1-3E (triple phosphomimetic Nde1) (natural protein, mouse, UniProt Q9CZA6 1-344, looked up)
chain: T1 sequence (looked up) with T215E, T243E, T246E
B2: GST-CENP-F-NBD (GST-tagged CENP-F fragment containing its Nde1-binding domain) (domain or fragment, human, UniProt P49454 2122-2297, looked up)
chain: EKLRVRIEADEKKQLHIAEKLKERERENDSLKDKVENLERELQMSEENQELVILDAENSKAEVETLKTQIEEMARSLKVFELDLVTLRSEKENLTKQIQEKQGQLSELDKLLSSFKSLLEEKEQAEIQIKEESKTAVEMLQNQLKELNEAVAALCGDQEIMKATEQSLDPPIEEEH

One assay has as its target CENP-F (UniProt P49454). Description: anti-GFP co-immunoprecipitation. Particulars: reference: GFP WT Nde1; sites T215,T243,T246.
Assay [1] has as its target B2. Description: pull-down.
Assay [2] has as its target T1, recombinant WT full-length Nde1, not …. Description: pull-down.

Here are results for 3 molecules from PMC6122996 (The Journal of Cell Biology, 2018).

Positions count from the first letter of the chain named.

Regarding Nde1 (from UniProt Q9CZA6) GFP-Nde1-3A, the “binding against the reference” value in the assay with CENP-F is recorded as “weaker”.

On to B1, for which the “fold level pulled down against Nde1-3A” value in assay [1] amounted to 2.5 fold.

As to B2, the binding result in assay [2] is recorded as “binds”.
